The target of one series is T1, RepB HUH domain (Streptococcus agalactiae, UniProt P13921 SEQ:1-132).
T1 chain: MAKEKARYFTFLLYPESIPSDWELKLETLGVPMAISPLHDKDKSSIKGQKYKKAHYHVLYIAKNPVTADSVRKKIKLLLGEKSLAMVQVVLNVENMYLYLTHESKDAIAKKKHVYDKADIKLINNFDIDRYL
The series can be described thus: covalent adduct by SDS-PAGE; 1 uM protein, 5 uM DNA, 30 min 37 C. The conditions noted are these: tags: N-terminal His6-SUMO; label: FAM. As for the experimental part: (§1) The HUH endonuclease-based protein tags described herein allow one to orthogonally label proteins in cells.
(§2) Unless otherwise noted, gel-shift assays were performed in HUH buffer; 50 mM Hepes pH 8, 50 mM NaCl, 1 mM MgCl₂ and 1 mM MnCl₂, incubated at 37° C. for 15 minutes unless otherwise noted, and quenched with 4× loading buffer. The reactions were analyzed by either electrophoresis on 4-20% polyacrylamide gels stained with Coomassie Blue or Bio-Rad Stain-Free gels. For comparison of covalent adduct formation of SNAP and DCV, 25 pmol of SNAP/DCV proteins were mixed with 100 pmol respective DNA-oligo in SNAP/HUH buffer. 4×SDS loading buffer was added at indicated times to quench. SNAP buffer: 50 mM Hepes pH8, 50 mM NaCl, and 5 mM β-mercaptoethanol. Specificity reactions of HUH-proteins with each target-oligo were performed in HUH buffer with 150 mM NaCl.

Series [1] has as its target T2, GeneA* HUH (Y131H) (PhiX174, UniProt P03631 SEQ:1-340).
T2 chain: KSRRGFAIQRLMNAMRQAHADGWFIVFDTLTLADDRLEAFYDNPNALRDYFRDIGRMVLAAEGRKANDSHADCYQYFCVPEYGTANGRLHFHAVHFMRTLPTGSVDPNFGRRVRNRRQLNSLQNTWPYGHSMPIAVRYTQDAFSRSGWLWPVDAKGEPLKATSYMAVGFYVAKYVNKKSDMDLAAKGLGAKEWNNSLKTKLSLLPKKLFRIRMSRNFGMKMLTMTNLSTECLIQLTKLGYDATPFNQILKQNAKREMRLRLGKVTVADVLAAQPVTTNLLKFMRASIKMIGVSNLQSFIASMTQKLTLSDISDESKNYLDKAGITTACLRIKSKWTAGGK
Nature of the series: no cross-reactivity in mixture. The conditions noted are these: tags: N-terminal His6-SUMO; label: Cy5.

Series [2] concerns the target T2, GeneA* HUH (Y131H). The series can be described thus: covalent adduct by SDS-PAGE. The conditions noted are these: tags: N-terminal His6-SUMO; label: FAM. The procedure: The reaction time is extremely fast. […] Product is observed after a reaction time of only five minutes.
as §2

Series [3] addresses T3, mMobA minimal relaxase domain (Escherichia coli, UniProt P07112 SEQ:1-186).
T3 chain: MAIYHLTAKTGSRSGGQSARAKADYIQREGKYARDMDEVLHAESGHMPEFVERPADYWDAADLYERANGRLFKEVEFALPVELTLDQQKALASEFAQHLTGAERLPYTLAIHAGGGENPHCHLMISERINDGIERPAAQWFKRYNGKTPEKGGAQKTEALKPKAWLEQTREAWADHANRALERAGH
Nature of the series: covalent adduct by SDS-PAGE; 1 uM protein, 5 uM DNA, 30 min 37 C. The conditions noted are these: tags: N-terminal His6-SUMO; label: Cy3. As for the experimental part:
as §1, §2

In the case of TGCTTCCGTACTACGACCCCCCA (ssDNA) [RepB target], the binding result with RepB HUH domain is given as “binds”.
Turning to AAGTATTACCAG (ssDNA) [PCV2 ori target], the binding result with GeneA* HUH (Y131H) [1] is reported as “no binding”.
For the molecule TCGACAACTTGATATTAATAACACTATAGAC (ssDNA) [GeneA target], the binding result with GeneA* HUH (Y131H) [2] is given as “binds”.
CCAGTTTCTCGAAGAGAAACCGGTAAATGCGCCCT (ssDNA) [mMobA target]: the binding result in series [3] is reported as “binds”.

These data come from patent US20160340395, “POLYPEPTIDE TAGGING FUSIONS AND METHODS” (REGENTS OF THE UNIVERSITY OF MINNESOTA, published 2016).
